{"source": "paper PMC8967036", "about": "“Engineering of phenylalanine dehydrogenase from Thermoactinomyces intermedius for the production of a novel homoglutamate” (PLoS ONE, 2022)", "proteins": {"B1": {"name": "TiPDH (phenylalanine dehydrogenase) (Thermoactinomyces intermedius) (protein)", "chain": "MRDVFEMMDRYGHEQVIFCRHPQTGLKAIIALHNTTAGPALGGCRMIPYASTDEALEDVLRLSKGMTYKCSLADVDFGGGKMVIIGDPKKDKSPELFRVIGRFVGGLNGRFYTGTDMGTNPEDFVHAARESKSFAGLPKSYGGKGDTSIPTALGVFHGMRATARFLWGTDQLKGRVVAIQGVGKVGERLLQLLVEVGAYCKIADIDSVRCEQLKEKYGDKVQLVDVNRIHKESCDIFSPCAKGGVVNDDTIDEFRCLAIVGSANNQLVEDRHGALLQKRSICYAPDYLVNAGGLIQVADELEGFHEERVLAKTEAIYDMVLDIFHRAKNENITTCEAADRIVMERLKKLTDIRRILLEDPRNSARR", "notes": "His-tagged, pET-Duet1, E. coli BL21(DE3), Ni-NTA purified"}, "B2": {"name": "TiPDH (phenylalanine dehydrogenase) (Thermoactinomyces intermedius; A135R) (protein)", "chain": "B1 chain with A135R", "notes": "as for B1"}}, "key": {"purified protein [1]": {"substrate": "O=C(O)C(=O)Cc1ccccc1", "assay": "purified protein", "assay_type": "biochemical, Thermoactinomyces intermedius", "conditions": "reductive amination, Tris-NH4Cl pH 8.0, 1 mM NADH, 37°C (general assay)"}, "purified protein [2]": {"substrate": "O=C(O)CCCC(=O)C(=O)O", "assay": "purified protein", "assay_type": "biochemical, Thermoactinomyces intermedius", "conditions": "reductive amination, Tris-NH4Cl pH 8.0, 1 mM NADH, 37°C (general assay)"}, "[3]": {"conditions": "mutant called only 'mutated TiPDH' at the number, A135R by b37-b38 (G114R and double mutant inactive)"}}, "note": "Numbering of substitutions follows the chain as printed. Names and notes keep the numbering of the source."}
{"protein": "B1", "values": [{"measurement": "Km", "setting": "purified protein [1]; natural substrate", "value": 0.66, "unit": "µM"}, {"measurement": "kcat", "setting": "purified protein [1]; natural substrate", "value": 0.3715, "unit": "s⁻¹"}, {"measurement": "Km", "setting": "purified protein [2]", "value": 1.771, "unit": "µM"}, {"measurement": "kcat", "setting": "purified protein [2]", "value": 0.00513, "unit": "s⁻¹"}]}
{"protein": "B2", "values": [{"measurement": "Km", "setting": "purified protein [1]", "value": 1.2, "unit": "µM"}, {"measurement": "kcat", "setting": "purified protein [1]", "value": 0.4307, "unit": "s⁻¹"}, {"measurement": "Km", "setting": "purified protein [2]; [3]", "value": 7.518, "unit": "µM"}, {"measurement": "kcat", "setting": "purified protein [2]; [3]", "value": 0.0228, "unit": "s⁻¹"}]}
